Experimental data reported in PMC11187563, “The importance of tyrosines in multimers of cyclic RGD nonapeptides: towards αvβ6-integrin targeted radiotherapeutics” (RSC Medicinal Chemistry, 2024).
Read-outs that look alike come from different tables or passages of the source.

Experiments:
[1] = Ex vivo biodistribution of 177Lu-labeled peptide tetramers in H2009 xenografted SCID mice; conditions: CB17 SCID, mouse, iv, total radioactivity, H2009 bearing SCID mice; for tissue uptake at 72 h / tissue to tissue ratio at 72 h: 70 pmol, 3 d p.i.; for tissue uptake at 1.5 h / tissue to tissue ratio at 1.5 h: 118 pmol, 90 min p.i.
Description: (§1) The biodistribution of the ^177Lu-labeled peptide conjugates was investigated in severe combined immunodeficiency (SCID) mice bearing subcutaneous xenografts of the αvβ6-integrin expressing human lung adenocarcinoma cell line H2009 on their right shoulders. Two representative time points after i.v. administration (p.i.) were evaluated.
(§2) Analytical HPLC was performed on a Shimadzu (Kyoto, Japan) Prominence HPLC system equipped with either a Dr. Maisch ReproSil Pur C18 AQ 150 × 4.6 mm, 5 μm, 120 Å (AC1) or a Phenomenex Kinetex C18 150 × 4.6 mm 5 μm column (AC2). Semipreparative HPLC was performed on a Shimadzu HPLC system equipped with either a Dr. Maisch ReproSil Pur C18 AQ 250 × 10 mm, 5 μm, 120 Å column with 5 mL min^−1 flow (PC1) or a Dr. Maisch ReproSil Pur C18 150 × 30 mm, 5 μm, 120 Å column with 20 mL min^−1 flow (PC2). Solvents for both systems were water (A) and acetonitrile (B) each supplemented with 0.1% (vol) trifluoroacetic acid (TFA). ESI-MS spectra (positive mode) were recorded on a Shimadzu LC-MS 2020 single quadrupol mass spectrometer. Solvents for MS applications were water (A) and acetonitrile (B) each supplemented with 0.1% (vol) formic acid. The other experimental procedures (determination of log D7.4, cultivation of H2009 human lung adenocarcinoma cells, generation of tumor xenografts in CB17 SCID mice, and biodistribution) were performed as described before.[28] All animal experiments have been carried out according to applicable law and institutional guidelines of Technical University of Munich, and were approved by the responsible local authority (Regierung von Oberbayern). The H2009 cells were regularly authenticated and tested for mycoplasma contamination. DOTPI-tetraazide,[43]FF (previously termed AvB6),[29]FY,[34] and YY (also referred to as Tyr2-alkyne)[36] were synthesized as described previously.

[2] = tested on: αvβ6-integrin expressing human lung adenocarcinoma cell line H2009 xenografts; test: as above; conditions: H2009 bearing SCID mice
Description: as §1, §2

[3] = H2009 tumor, read-out: Tumor H2009 %IA/g
[4] = adrenals, read-out: Adrenals %IA/g
[5] = heart (myocard), read-out: Heart (myocard) %IA/g
[6] = kidneys, read-out: Kidneys %IA/g
[7] = large intestine (empty), read-out: Large intestine (empty) %IA/g
[8] = pancreas, read-out: Pancreas %IA/g
[9] = small intestine (empty), read-out: Small intestine (empty) %IA/g
[10] = stomach (empty), read-out: Stomach (empty) %IA/g
[11] = tumor/blood, read-out: tumor/organ ratio, Blood
[12] = tumor/heart (myocard), read-out: tumor/organ ratio, Heart (myocard)
[13] = tumor/liver, read-out: tumor/organ ratio, Liver
[14] = tumor/lung, read-out: tumor/organ ratio, Lung
[15] = tumor/pancreas, read-out: tumor/organ ratio, Pancreas
[16] = tumor/spleen, read-out: tumor/organ ratio, Spleen

Question: For CC(C)C[C@@H]1NC(=O)[C@H](CC(=O)O)NC(=O)CNC(=O)[C@H](CCCNC(=N)N)NC(=O)[C@H](Cc2ccccc2)NC(=O)[C@H](CCCCNC(=O)CCC(=O)NCCCC[C@H](NC(=O)[C@H](Cc2ccccc2)NC(=O)CNC(=O)CCc2cn(CCCNC(=O)CCP(=O)(O)CN3CCN(CP(=O)(O)CCC(=O)NCCCn4cc(CCC(=O)NCC(=O)N[C@@H](Cc5ccccc5)C(=O)N[C@@H](CCCCNC(=O)CCC(=O)NCCCC[C@H]5C(=O)N[C@@H](Cc6ccccc6)C(=O)N[C@@H](CCCNC(=N)N)C(=O)NCC(=O)N[C@@H](CC(=O)O)C(=O)N[C@@H](CC(C)C)C(=O)N[C@@H](C)C(=O)N[C@@H](Cc6ccc(O)cc6)C(=O)N6CCC[C@@H]6C(=O)N5C)C(=O)O)nn4)CCN(CP(=O)(O)CCC(=O)NCCCn4cc(CCC(=O)NCC(=O)N[C@@H](Cc5ccccc5)C(=O)N[C@@H](CCCCNC(=O)CCC(=O)NCCCC[C@H]5C(=O)N[C@@H](Cc6ccccc6)C(=O)N[C@@H](CCCNC(=N)N)C(=O)NCC(=O)N[C@@H](CC(=O)O)C(=O)N[C@@H](CC(C)C)C(=O)N[C@@H](C)C(=O)N[C@@H](Cc6ccc(O)cc6)C(=O)N6CCC[C@@H]6C(=O)N5C)C(=O)O)nn4)CCN(CP(=O)(O)CCC(=O)NCCCn4cc(CCC(=O)NCC(=O)N[C@@H](Cc5ccccc5)C(=O)N[C@@H](CCCCNC(=O)CCC(=O)NCCCC[C@H]5C(=O)N[C@@H](Cc6ccccc6)C(=O)N[C@@H](CCCNC(=N)N)C(=O)NCC(=O)N[C@@H](CC(=O)O)C(=O)N[C@@H](CC(C)C)C(=O)N[C@@H](C)C(=O)N[C@@H](Cc6ccc(O)cc6)C(=O)N6CCC[C@@H]6C(=O)N5C)C(=O)O)nn4)CC3)nn2)C(=O)O)N(C)C(=O)[C@H]2CCCN2C(=O)[C@H](Cc2ccc(O)cc2)NC(=O)[C@H](C)NC1=O [Compound 177Lu-GFK-Y4, metal not drawn], which tissue uptake at 72 h [1, 3] is on record?
Answer: 0.77 %ID/g

Question: What about the tissue uptake at 1.5 h [1, 3] of the same molecule?
Answer: 1.74 %ID/g

Question: And the tissue uptake at 72 h [1, 4]?
Answer: 0.25 %ID/g

Question: And the tissue uptake at 1.5 h [1, 4]?
Answer: 0.95 %ID/g

Question: What about the tissue uptake at 72 h ([1]; blood, read-out: Blood %IA/g) of the same molecule?
Answer: 0.02 %ID/g

Question: What about the tissue uptake at 1.5 h ([1]; blood, read-out: Blood %IA/g) of the same molecule?
Answer: 0.44 %ID/g

Question: What about the tissue uptake at 72 h ([1]; bone, read-out: Bone %IA/g) of the same molecule?
Answer: 0.25 %ID/g

Question: And the tissue uptake at 1.5 h ([1]; bone, read-out: Bone %IA/g)?
Answer: 0.49 %ID/g

Question: What about the tissue uptake at 72 h [1, 5] of the same molecule?
Answer: 0.12 %ID/g

Question: What about the tissue uptake at 1.5 h [1, 5] of the same molecule?
Answer: 0.32 %ID/g

Question: And the tissue uptake at 72 h [1, 6]?
Answer: 169 %ID/g

Question: And the tissue uptake at 1.5 h [1, 6]?
Answer: 274 %ID/g

Question: What about the tissue uptake at 72 h [1, 7] of the same molecule?
Answer: 0.78 %ID/g

Question: What about the tissue uptake at 1.5 h [1, 7] of the same molecule?
Answer: 1.76 %ID/g

Question: What about the tissue uptake at 72 h ([1]; liver, read-out: Liver %IA/g) of the same molecule?
Answer: 0.48 %ID/g

Question: What about the tissue uptake at 1.5 h ([1]; liver, read-out: Liver %IA/g) of the same molecule?
Answer: 1.16 %ID/g

Question: What about the tissue uptake at 72 h ([1]; lung, read-out: Lung %IA/g) of the same molecule?
Answer: 0.5 %ID/g

Question: What about the tissue uptake at 1.5 h ([1]; lung, read-out: Lung %IA/g) of the same molecule?
Answer: 2.88 %ID/g

Question: And the tissue uptake at 72 h ([1]; muscle, read-out: Muscle %IA/g)?
Answer: 0.13 %ID/g

Question: What about the tissue uptake at 1.5 h ([1]; muscle, read-out: Muscle %IA/g) of the same molecule?
Answer: 0.26 %ID/g

Question: And the tissue uptake at 72 h [1, 8]?
Answer: 0.08 %ID/g

Question: And the tissue uptake at 1.5 h [1, 8]?
Answer: 0.14 %ID/g

Question: And the tissue uptake at 72 h [1, 9]?
Answer: 0.15 %ID/g

Question: And the tissue uptake at 1.5 h [1, 9]?
Answer: 0.73 %ID/g

Question: What about the tissue uptake at 72 h ([1]; spleen, read-out: Spleen %IA/g) of the same molecule?
Answer: 0.86 %ID/g

Question: And the tissue uptake at 1.5 h ([1]; spleen, read-out: Spleen %IA/g)?
Answer: 0.89 %ID/g

Question: What about the tissue uptake at 72 h [1, 10] of the same molecule?
Answer: 2.42 %ID/g

Question: And the tissue uptake at 1.5 h [1, 10]?
Answer: 3.29 %ID/g

Question: What about the tissue to tissue ratio at 72 h ([1]; tumor / adrenals, read-out: tumor/organ ratio, Adrenals) of the same molecule?
Answer: 3.7

Question: And the tissue to tissue ratio at 72 h ([1]; tumor / bone, read-out: tumor/organ ratio, Bone)?
Answer: 3.2

Question: And the tissue to tissue ratio at 72 h ([1]; tumor / large intestine (empty), read-out: tumor/organ ratio, Large intestine (empty))?
Answer: 1.4

Question: And the tissue to tissue ratio at 72 h ([1]; tumor / muscle, read-out: tumor/organ ratio, Muscle)?
Answer: 6.9

Question: What about the tissue to tissue ratio at 72 h ([1]; tumor / small intestine (empty), read-out: tumor/organ ratio, Small intestine (empty)) of the same molecule?
Answer: 5.6

Question: What about the tissue to tissue ratio at 72 h ([1]; tumor / stomach (empty), read-out: tumor/organ ratio, Stomach (empty)) of the same molecule?
Answer: 0.4

Question: What about the tissue to tissue ratio at 1.5 h ([1]; tumor/adrenals, read-out: tumor/organ ratio, Adrenals) of the same molecule?
Answer: 2.2

Question: And the tissue to tissue ratio at 72 h [1, 11]?
Answer: 56.1

Question: And the tissue to tissue ratio at 1.5 h [1, 11]?
Answer: 4.3

Question: What about the tissue to tissue ratio at 1.5 h ([1]; tumor/bone, read-out: tumor/organ ratio, Bone) of the same molecule?
Answer: 3.6

Question: And the tissue to tissue ratio at 72 h [1, 12]?
Answer: 6.9

Question: And the tissue to tissue ratio at 1.5 h [1, 12]?
Answer: 5.5

Question: And the tissue to tissue ratio at 1.5 h ([1]; tumor/large intestine (empty), read-out: tumor/organ ratio, Large intestine (empty))?
Answer: 1.1

Question: What about the tissue to tissue ratio at 72 h [1, 13] of the same molecule?
Answer: 2

Question: And the tissue to tissue ratio at 1.5 h [1, 13]?
Answer: 1.7

Question: What about the tissue to tissue ratio at 72 h [1, 14] of the same molecule?
Answer: 1.8

Question: And the tissue to tissue ratio at 1.5 h [1, 14]?
Answer: 0.6

Question: What about the tissue to tissue ratio at 1.5 h ([1]; tumor/muscle, read-out: tumor/organ ratio, Muscle) of the same molecule?
Answer: 7.2

Question: What about the tissue to tissue ratio at 72 h [1, 15] of the same molecule?
Answer: 9.9

Question: And the tissue to tissue ratio at 1.5 h [1, 15]?
Answer: 12.2

Question: What about the tissue to tissue ratio at 1.5 h ([1]; tumor/small intestine (empty), read-out: tumor/organ ratio, Small intestine (empty)) of the same molecule?
Answer: 2.5

Question: And the tissue to tissue ratio at 72 h [1, 16]?
Answer: 1

Question: What about the tissue to tissue ratio at 1.5 h [1, 16] of the same molecule?
Answer: 2.1

Question: What about the tissue to tissue ratio at 1.5 h ([1]; tumor/stomach (empty), read-out: tumor/organ ratio, Stomach (empty)) of the same molecule?
Answer: 0.6

Question: What about the “tumor/organ ratio, Kidneys” value ([2]; 90 min p.i.) of the same molecule?
Answer: 0.0

Question: What about the “tumor/organ ratio, Kidneys” value ([2]; 3 d p.i.) of the same molecule?
Answer: 0.0
